The values below come from a protein production outcome set (Wang et al. 2014).

A short description of the data set: label from the status in PepcDB records.
In the case of “MTRSANPSLFLPLRAAWLALMRFQAKSGFVMSSHVAMSMMMALFPFILFTVALAGSLSQDLVTDDLIQLIFGTWPEQVATPIVAELKAVLAGANSRVMTVGGVLAVYFASNGVDAVREAMSRAYHDAETRPFWKTRLLCIAIVVGGGAIVLAVAAFEVVMPIYTRLVTDALPGAAPDWLSVERLSWIFVVAMPAGAVLACHALLPAGRHPLRRILPGVVLTLVLWAGCGWGFSLYIANFASYSTTYAGLAGAMAALIFLYLNAAILILGAEFNGALMDLSGGPD”, the protein production result is “not failed”. Next, “MDNLMLNNKIYLEGTVVSELEFSHEMYGEGFYTFNLEVMRLSDSKDLLNITVSERLITTMDLKIGTEIVVEGQLRSYNKFIDGNNKLILTVFARNIEYCEERSKNPNEIFLDGFICKEPVYRTTPFGREIADLLLAVNRSYNKSDYIPTIAWGRNSRFCKTLEVGDNIRIWGRLQSREYQKKISETEVVKKIAYEVSISKMEKVSVESEQNESGEEISLEHHHHHH”: “failed”; “MDDSYMMVPMRRKRSQCDLAQMVQAIEEYDGSTQCEIDIDECASHPCKNGATCIDQPGNYFCQCVPPFKVFNFDGISSTSVQEFYHCEFGPCKASDSCENGAVRGEKMDLEMFPLEFRCQCASFSGPRCEINVNECSSSPCLHGYCYDMVDGFSCLCNPGYVGIRCEQDIDDCILNACEHNSTCKDLHLSYQCVCLSDWEGNFCEQESNECKMNPCKNNSTCTDLYKSYRCECTSGWTGQNCSEEINECDSDPCMNGGLCHESTIPGQFVCLCPPLYTGQFCHQRYNLCDLLHNPCRNNSTCLALVDANQHCICREEFEGKNCEIDVKDCLFLSCQDYGDCEDMVNNFRPGFSGSLCEIEINECSSEPCKNNGTCVDLTNRFFCNCEPEYHGPFCELDVNKCKISPCLDEENCVYRTDGYNCLCAPGYTGINCEINLDECLSEPCLHDGVCIDGINHYTCDCKSGFFGTHCETNANDCLSNPCLHGRCTELINEYPCSCDADGTSTQCKIKINDCTSIPCMNEGFCQKSAHGFTCICPRGYTGAYCEKSIDNCAEPELNSVICLNGGICVDGPGHTFDCRKACLYNCDNAKTRQESKELNKQQD”: “failed”. The value for “MWPVVALTLFVVTFGFVLGGLVVGGKVQARPVSFLLFSGLFLFSSFFGMLVSLFTTGWFPFRLLDVVIVALCFVFIVSCFMRFHPTFGFFQFDGRANMILFAVISFFLGLQLGMLGWRTFFILFLALVFTAGLFAGGVFQVRAVMKFYSRQPSFHFLPLIWLLFATVLKLL” was “failed”; that for “ATHIIFTTHENSDGDGLGSQVALALALKALGKEVAIFNPTEVPPNYLFLKELHEINLFRDRDEESMQEFFLADLLVVLDANLHDRIGRLWPHVEFARQMSRLKVLCIDHHLEPEDFADITVCETYASSTGELVCDLVTALELRTGQQLFTPEVASALYAAIMTDTGSFRFPKTTPYTYRLAGMLVEKGADPELVYDRIYNAL” was “failed”. The value for “MPIIKSSRVNIGRFTIGGSIPIVIISIFDHDAKSLTEKFETKKLSDKNLYEIRFDLFDKVNIDEELEIIRALDEMDIDYIFTYRGHDPEKIYETAITKMVPAVDMDLSLLNKVNRRSPDTRIMVSYHTDSSKDMIEKLDEMLKANADIVKVACNYKDEKNFFKDLIEIAQRKEISGKPVLFIPMGKSFLRVISAYYVSDMVYAKYDKETAMGQPDPDYYNKAFSLFNYIG” was “failed”; that for “MTEKNTLKKSATLAAAGLVVAGALLAGCGESKATPMDDAYAGNSGETEKSQEEQSQSQSNGSDSSDGSDSGSSHNDPSTTTSDKKDTGNYKDGNYSINGQYGPVGEDSIDVHLTIKDGNVETVKIIGHPFTTISKNHQDDFAKAINGVVDGKPLKGLKVDKVAGASWTSDAFNKALEVARQEASIQE” was “failed”; that for “MKYQNFIMRILCLLLILAAVVGYNSMQKKDTQAQESQEITALTKRVEKLEEQNTEILSALEEAAKNQEAAIAQAQRDAKDKDDAAKEDAEGADAADTEESDDSENVYKDGTYTGSAQGFGGAITVQVTLANDEITDIQVTSAPGEDSAYLSQGEGVISSIISAQSTDVDTVSGATFSSTGIINAVVDALGKAEN” was “failed”. As for “MEQADVTSLIPILITLFLALTTRNVVVGLFAGVVSGVAMLEGTFVEKGPLDSFSALMKSYLLPQLTDSYNAGVILLLVFIGGFVALMEKSGGGVAFAKKVTQWVASKCQAQLSAWFGGVVIFFSDLGTPLIVGPVFRPLFDKLKVSRQKLAFIIDSTSSPVAILIPFIGWGVYIMGLIQKEFTALNVSMSDWDAFIGAIPYQFYAFLAIAIVPIVSFFKLDFGPMAKAEQLAEQGSDFGKEQESMNVFTHKNAKSSFVWAPLLVMLVVLCTILVPHGFPFQKVAGSTFRAALSSAYFFAAFTLIALMAFYGVRKLSDGIQVYLKGMSNMMSVAVILVLAWALSSVGKELGAAAYIAEQAQAGFPYWLLPAVAFLLAGIISFATGSSWGTFAIMMPLVIPTAVAIDAPLLVCIGAVLSGGLFGDHCSPISETTILSSTGAGCEQYEHFRTQLPYAVLNGVIALVCFLLAGVAASPVIVLAAIVAQFAIYYVLSKQKPTEQLESVSAE”, the protein production result is “failed”.

As to “MTFEIAFVLLSLLGMVIALILDKMRPGMILFSVVVLFLCAGILTPKEMLEGFSNKGMITVALLFLVSEGIRQSGALGQVVKKLLPQKRTTVFRAQLRLLPAVAFISAFLNNTPVVVIFAPIIKRWARTVHLPATKFLIPLSYVTILGGICTLIGTSTNLVVHGMILESGHEGFTMFELGKVGIFIAIAGIIYLFAFSKKLLPDARPDTAVPDEEVEEGDKLHRVEAVLGARFPGINKTLGEFNFKRHYGAEVKEIKKRNGQRFINNLEEVILREGDTLVVMADDTFIPTWGESSVFVLLANGNDNEPIPGKGKRWFALILLILMIAGATIGELPVVKEMFPDMKLDMFFFVSVTTIIMAWTKIFPARKYTKYISWDILITIACAFAISKAMVNSGVADKVAGFIIGMSHDYGPHVLLAVLFIITNLFTELITNNAAAALAFPLALSLSVQLGVDPTPFFVVICMAASASFSTPIGYQTNLIVQGIGNYKFMDFVRIGLPLNLITFLISIFLIPLIWPF”, the protein production entry is “failed”. Regarding “MHSTLLRTALLTAALGSFSHTATAEGVMVHLFQWKFNDIANECETVLGPKGFGGVQITPPAEHKQGSQVWWTVYQPVSFKNFNSFGGSEAELRSMIARCNAAGVKVYADAVFNQLASGSGTATGGGSYNAGQYQYPQFGYNDFHHSGDITNYGDSNNVWNGALYGMPDLNTGSPYVQDQIATYMKTLLGWGVAGFRIDAAKHMAPTDVKAILDKAGSPKAYLEVIGAGGESPDIQPGRYTYIDTVTDFKYGTDLAANFNGQIKNLKTLGESWGLLPSAKAFVFVVNHDRERGHGGGGMLTFMSGARYDLANTFMIAWPYGWKQVMSGYRFENMSTYETDKGAPGSTPCTDSQWNCEQRRPTIMNMALFHNRTEGQPVSNWWDNGNNQIAFGRGDKGFVAINNESGSLVASLQTALPAGEYCNLLGGNDYCSGGYVTVDGSGKASLNVPGMKAAAIIAGCTKASPCGGSALPGTKFSSMNLRGTHNAWGNTPMTVDANRVWSATLTLTGNGDATGAQRFKFDVFGNWAENYGDNEGDGIADKGSSKDILVSGAGSYRITLNESDLRYTVTPLTSNQAPVAALSPKTLSVKAGESVVFDASASHDDGGVVSYSWSSGGTAATETVRFDTPGTYTVTVTVTDAEGLTASASATVTVTDDNGTYTSVLPTLNFRGTPNAWGSLAMTLVADNQWEALVTFNGQANQRFKFDVKGDWSKNYGDTNKDGVAELAGSDILTSVTGQYRVRFNDQTLQYSLTPVSVGYAKNFASLNIRGTTNNWGSTPMSLVGDHLWQASVTFTGSGDGNGGQRFKFDVKGDWTQNYGDTNRDGVAEQAGADITTALVGVYVVRFNDQTLAYSLNAQ”, the protein production entry is “failed”. Next, “MNPILNLIISFIALLWAANHLVAGSSGLAIRFQLSPLMIGLTIVALGTSAPELFISIISSLKDKNDLAIGNAIGSNIANIGLILGIIILIKPTSFHFNKLKKVYPILIIVMLFAYSLILDGYLGTIDGCLFLIGCIAVLCYFIYLASHSPKRDLSVNEFRPAILSYRSTPSNLLSIAIGLLILPICSKYLVYNASEIAKWAGISEFTIGLTIIAIGSSLPELTTALVAAIKGEDSIAIGTIIGSNIYNLLLILALPGLLNPTKISSVVLWRDMPVMLSITLLLLFLNYYYQKKTSSWPGGILLLVYFCYMASLIINAHS”: “failed”; “MKLYQHIETLWDYMQLKQDLKPADCLFVMCSNDVRVAEHAAALYHQKLAPLIVFSGGEGRFTDGLFEKSEAETFADIARLAGVPSDAILVETRSTNSGENVRFTEQLLKEKGIQCESIILVQKPFMERRAIATFEKQWQSPYSQVQVSSTAHPFFEYINEDMPLMMVLEALMEDFSRVKSYPEKGFQTKQDIPNQVDSSYQVLLERFGFDLVLEHHHHHH”: “failed”; “MSLDNSRTRPRVGHIQFLNCLPLYWGLARTGTLLDFELTKDTPEKLSEQLVRGDLDIGPVTLVEFLKNADDLVAFPDIAVGCDGPVMSCVIVSQVPLDRLDGARVALGSTSRTSVRLAQLLLSERFGVQPDYYTCPPDLSLMMQEADAAVLIGDAALRANMIDGPRYGLDVHDLGALWKEWTGLPFVFAVWAARRDYAEREPVITRKVHEAFLASRNLSLEEVEKVAEQAARWEAFDEDTLAKYFTTLDFRFGAPQLEAVTEFARRVGPTTGFPADVKVELLKPEGHHHHHH”: “not failed”. The value for “MNSMKLYIFACLCSLILWGVSCNEESAGIPTGSLFLGIEEDATLLTKAESAVTNESLRVDIIAAEGDTIKSYSDYIDEVKGKKIVLPVGTYTISVKSNQSEEAGWEKPFYSGSKEITIQSGEITSVQIVCKISNTKVAVEYADNLADYFSHYETTVSNTSGSLLYTRDETRAGFFKAEKLTADLKLVNQDGNEFAMQRVFPDIKERYFYKIKYSLDDGGGDNEEAGADFGGIIVDEKADTIYYGIFIKQEDLFGKSVPKLALDGFTENKIVYKKTENPSVPEHSLTIEAPNGIKQLKVETTSFQFADVPSFDLCNLTDAARTRLQQLDFPMQEVKDKQELTFVLTDFAKALEPASVTQMATHTFTFSVLDNLHQETTVQFIYEIRPNVNVTTEEPVVWAKFVTLRGNSIDRDNIGFMLKKKADADFQRYDATIYNEQTGDFSLLLIENIMPGTEYEYYAVSGTDAQGNVKTFTTSPIVNLKNNTFDEWFKNGKTWFPNVDVSKWWDSGNTGANTAGENNPTSPEESVVVKGKAAKLQSTWIGFIGIGAFASASMFTGNFVDIDGTNGILSFGQPFTAKPTKLTGYYKYTPVNIDYMEQWDSKVDPDLKSGDSDQCIIYIALCTKNYEIRTNPKSRQLFDPNDASVIAYGELVAKEAVSGEEANGYKKFSIDIKYRKTDVTPSYIVVVAAASRYGDYFTGGKGSTLYIDEFNLEYDYNAASFTNE” was “failed”; that for “MMDSVKNASENISRRLSRTWDHISDGWRELVHHGSDALTHFVHRKGEEDKGQEAAASTPAFPRWSILAGDMEETDREIVVRIEVPGMEKKDFEISIEGKTLSLRGEKRFERDTNDSKYHVMERAYGVFQRTLPLPVEVNEDKAEADYKNGVLTVRLPKLNVEKRRFISIS” was “failed”. Next, “MSIWWLNNTVRVAREKEAVENLATETEWFVLDRWEIHDYKFAAIGSIVAHGATYPIRLVYPDNFPLVPAWVEPQDPEAKWSYHQYGKGGALCLELRPDNWTSRANGADVLRSAYGLLNLENPLGDGEKGKVTSAHNVGEIQKYNWGESPVFIGQECLTRLLSGDIQDVNALRWSASDKVWPIFLSDAVDRQGVQRPPSADLNTWRLHVPVALVSGKVPDGLPSERSTFISTLWESSPVEGEVNFVTVFIEDDGINVFHVLSDNAYHRKVYVLPPETGLRSGRAPSAQAKKVAVVGAGSVGSKVAEMLLRSGIDTLRIFDGDVFLPGNLERHVLDWRDVGYHKVHGLKRRLLHIVPGADIMTIDQNLNWQKSARTNALHFDLITACDIIVDASGDPATSMLLGALAFENKKPFVSVEVFEGGIGALVAPSVPERNAAYTLGREALLNWTDEKGRVVPLSAGDRAYEAISDDGDIIVADDAAISMAASHAARVVLDILDDKLDDFRWLLIGFRKEWAFDMHGHVIALDVGGPSEWNNNTEDADAQKFVIEIAGELLDVLKAFTQ”: “failed”.
